We go through two molecules from patent US20230159603A1 (XILIO DEVELOPMENT, published 2023).

First the molecules themselves.
B2: rhIL-12RB2-Fc (Fc fusion, human, UniProt Q99665 24-622, looked up, not shown: a dimerising Fc or GST)
chain: KIDACKRGDVTVKPSHVILLGSTVNITCSLKPRQGCFHYSRRNKLILYKFDRRINFHHGHSLNSQVTGLPLGTTLFVCKLACINSDEIQICGAEIFVGVAPEQPQNLSCIQKGEQGTVACTWERGRDTHLYTEYTLQLSGPKNLTWQKQCKDIYCDYLDFGINLTPESPESNFTAKVTAVNSLGSSSSLPSTFTFLDIVRPLPPWDIRIKFQKASVSRCTLYWRDEGLVLLNRLRYRPSNSRLWNMVNVTKAKGRHDLLDLKPFTEYEFQISSKLHLYKGSWSDWSESLRAQTPEEEPTGMLDVWYMKRHIDYSRQQISLFWKNLSVSEARGKILHYQVTLQELTGGKAMTQNITGHTSWTTVIPRTGNWAVAVSAANSKGSSLPTRINIMNLCEAGLLAPRQVSANSEGMDNILVTWQPPRKDPSAVQEYVVEWRELHPGGDTQVPLNWLRSRPYNVSALISENIKSYICYEIRVYALSGDQGGCSSILGNSKHKAPLSGPHINAITEEKGSILISWNSIPVQEQMGCLLHYRIYWKERDSNSQPQLCEIPYRVSQNSHPINSLQPRVTYVLWMTALTAAGESSHGNEREFCLQGKAN

In one test the target is rhIL-12RB1-Fc (human, UniProt P42701 24-545, limits assumed). Description: SPR, IL-12 receptor immobilised, IL-12 flowed, 25 C, FIGS. 34A-34D. The protocol: (§1) Sensor Chips were coated and immobilized with IL-12 receptors. Dilutions of IL-12 constructs were flowed over the chips with the immobilized IL-12 receptors to determine the on rate at 25 degrees C. At equilibrium (approximately 3-4 minutes), the flow buffer was changed to PBST, to determine the off rates over 6 minutes. Between each run the chip was regenerated. The tables represent the SPR data (FIGS. 34 and 35).

The test “rhIL-12RB2-Fc” concerns the target B2. In words: SPR, IL-12 receptor immobilised, IL-12 flowed, 25 C, FIGS. 35A-35D. The protocol: as §1
For the next test, the target named is T1, AK384.
T1 construct: Masked IL-12 heterodimer, IL-12Rβ1 (24-237) mask; tested uncleaved
In words: SPR, IL-12 receptor immobilised, IL-12 construct flowed, 25 C, FIGS. 35A-35D. As for the experimental part: as §1

B1: recombinant human IL-12 (rhIL-12) control (ligand)
chain 1: IWELKKDVYVVELDWYPDAPGEMVVLTCDTPEEDGITWTLDQSSEVLGSGKTLTIQVKEFGDAGQYTCHKGGEVLSHSLLLLHKKEDGIWSTDILKDQKEPKNKTFLRCEAKNYSGRFTCWWLTTISTDLTFSVKSSRGSSDPQGVTCGAATLSAERVRGDNKEYEYSVECQEDSACPAAEESLPIEVMVDAVHKLKYENYTSSFFIRDIIKPDPPKNLQLKPLKNSRQVEVSWEYPDTWSTPHSYFSLTFCVQVQGKSKREKKDRVFTDKTSATVICRKNASISVRAQDRYYSSSWSEWASVPCS
chain 2: RNLPVATPDPGMFPCLHHSQNLLRAVSNMLQKARQTLEFYPCTSEEIDHEDITKDKTSTVEACLPLELTKNESCLNSRETSFITNGSCLASRKTSFMMALCLSSIYEDLKMYQVEFKTMNAKLLMDPKRQIFLDQNMLAVIDELMQALNFNSETVPQKSSLEEPDFYKTKIKLCILLHAFRIRAVTIDRVMSYLNAS
notes: also called wild-type rhIL-12
As to B1, the binding result with rhIL-12RB1-Fc and with rhIL-12RB2-Fc was “binds” each time.

Take B2: the binding result with AK384 is “binds”.
